Here are results for 16 sequences from the nanobody polyreactivity screen of Harvey et al. (2022).

This data set in a line: yeast display, Sf9 membrane polyspecificity reagent, FACS + sequencing; frameworks hold sequencing errors. In outline: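 Genes from sorted yeast were amplified by colony PCR, read by MiSeq 2 × 250 sequencing and filtered on CDR length. These cells carried a synthetic nanobody library in Saccharomyces cerevisiae BJ5465 and were sorted by FACS into low and high (top ~1%) gates on anti-HA and streptavidin fluorescence. Polyreactivity is labelled according to the gate of origin.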
With “QVQLVESGGGLVQAGGSLRLSCAASGNTFKDYTMGWFRQAPGTERELVASINSGGSTNYADSVKGRFTISRDNAKNTVYLQMNSLKPEDTAVYDCAKRAWSDYNPIDYWGQGTQVTVSS”, the “polyreactivity (PSR sort gate)” value is recorded as “low polyreactivity”.
Then “QVQLVESGGGLVQAGGSLRLSCAASGNTFKYYAMGWYRQAPGKERVLVATISRTAGSTYYADSVKGRFTISRDNAKNTVYLQMNSLKPEDTAVYYCNKDRGHPFKYDYWGQGTQVTVSS”, with “low polyreactivity”; and “QVQLVESGGGLVQAGGSLRLSCAASGNTFLPYAMGWYRQPPGKERELVAAISWSGGSTYYADSVKGRFTISRDTAKNTVYLQMNSLKPEDTAVYYCAATPTRRYYRQSAYDYWGQGTQVTVSS”, with “high polyreactivity”.
For “QVQLVESGGGLVQAGGSLRLSCAASGNTFLVNVMGWYRQAPGKERELVASITINDGSTYYADSVKGRFTISRDNAKNTVYLQMNSLKPDDTAVYYCAADGVVPGRFFWPAHEYDYWGQGTQVTVSS”, the “polyreactivity (PSR sort gate)” value is “low polyreactivity”.
Then “QVQLVESGGGLVQAGGSLRLSCAASGNTFLYYAMGWYRQAPGKEMELVASINLSDGCTYYADSVKGRFTISRDNAKNTVYFQMTSLKPEDTAVYYCAAVFGGYTIYDYWGQGTQVTVSS”, with “low polyreactivity”; and “QVQLVESGGGLVQAGGSLRLSCAASGNTFNSYAMGWYRQAPGKERELVAAIRWRGTSTYYADSVKGRFTISRDTAKNTVYLQMNSLKPEDTAVYYCAADVVRSNFYGTFLYDYDYWGQGTQVTVSS”, with “low polyreactivity”; and “QVQLVESGGGLVQAGGSLRLSCAASGNTFPFNAMGWYRQAPGKERELVAAISRGGSTYYADSVKGRFTISRDNAKNTVYLQMISLKPEDTAVYYCAVSAGKRRLDYWGQGTQVTVSS”, with “high polyreactivity”.
Then “QVQLVESGGGLVQAGGSLRLSCAASGNTFPRYAMGWYRQAPGKERELVASISWSGGSTYYADSVKGRFTISRDNAKNTVYLQMNSLKPEDTAVYYCNARRAYRAWYYPYDYWGQGTQVTVSS”, with “high polyreactivity”.
Then “QVQLVESGGGLVQAGGSLRLSCAASGNTFPSYVMGWYRQAPGKERELVAAINRGGGTYYADSVKGRFTISRDNAKNTVYLQMNSLKPEVTAVYYCAVRDQRHPYMDYWGQGTQVTVSA”, with “low polyreactivity”; and “QVQLVESGGGLVQAGGSLRLSCAASGNTFPTYAMGWYRQAPGKERELVAAISRRGGSTYYADSVKGRFTISRDNAKNTVYLQMNSLKPEDTAVYYCARPRRSVNVYKYIYNYWGQGTQVTVSS”, with “high polyreactivity”; and “QVQLVESGGGLVQAGGSLRLSCAASGNTFPVYAMGWYRQASGKERELVATITSGGSTNYADSVKGRFTISRDNAKNTVYLQMNSLKPEDTAVYYCARRAVYSKRRYDYWGQVTQVTVSS”, with “low polyreactivity”.
Consider “QVQLVESGGGLVQAGGSLRLSCAASGNTFQRYTMGWYRQAPGKERELVAAITWSGGNTYYADSVKGRFTISRDNAKNTVYLQMNSLKPEDTAVYYCATYYWLGLSLYDYWGQGTQVTVSS”, for which the “polyreactivity (PSR sort gate)” value is “low polyreactivity”.
With “QVQLVESGGGLVQAGGSLRLSCAASGNTFRDYAMGWYRQAPGKERELVAAITSAGARTYYADSVKGRFTISRDNAKNTVYLQMNSLKPEDTAVYYCAADWSGYYTYDYWGQGTQVTVSS” the entry was “low polyreactivity”; with “QVQLVESGGGLVQAGGSLRLSCAASGNTFRFYAMGWYRQAPGKERELVADITRGGSTNYADSVKGRFTISRDNAKNTVYLQMNSLKPEDTAVYYCAARPWYYTSSFYYGRYDYWGQGTQVTVSS”, “high polyreactivity”.
Then “QVQLVESGGGLVQAGGSLRLSCAASGNTFRWYVMGWYRQAPGKERELVAAITSSGSTTYYADSVKGRFTISRDNAKNTVYLQLNSLKPEDTAVYYCAARNYGPYDYWGQGTQVTVSS”, with “low polyreactivity”.
With “QVQLVESGGGLVQAGGSLRLSCAASGNTFRWYVMGWYRQAPGKERELVAAITSSGSTTYYADSVKGRFTISRDNAKNTVYLQMNSLKPEDTAVYYCAADGRTITYSPVDYDSWGQGTQVTVSS” the entry was “low polyreactivity”.
